B1: 371-T6wt: TRAF6 wild-type coexpressed with LMP1Δ371-386 (protein, UniProt Q9Y4K3 1-522, looked up)
TNF receptor-associated …: MSLLNCENSCGSSQSESDCCVAMASSCSAVTKDDSVGGTASTGNLSSSFMEEIQGYDVEFDPPLESKYECPICLMALREAVQTPCGHRFCKACIIKSIRDAGHKCPVDNEILLENQLFPDNFAKREILSLMVKCPNEGCLHKMELRHLEDHQAHCEFALMDCPQCQRPFQKFHINIHILKDCPRRQVSCDNCAASMAFEDKEIHDQNCPLANVICEYCNTILIREQMPNHYDLDCPTAPIPCTFSTFGCHEKMQRNHLARHLQENTQSHMRMLAQAVHSLSVIPDSGYISEVRNFQETIHQLEGRLVRQDHQIRELTAKMETQSMYVSELKRTIRTLEDKVAEIEAQQCNGIYIWKIGNFGMHLKCQEEEKPVVIHSPGFYTGKPGYKLCMRLHLQLPTAQRCANYISLFVHTMQGEYDSHLPWPFQGTIRLTILDQSEAPVRQNHEEIMDAKPELLAFQRPTIPRNPKGFGYVTFMHLEALRQRTFIKDDTLLVRCEVSTRFDMGSLRREGFQPRSTDAGV
B2: GST-LMP1_(181-386) A204xAxA (domain or fragment)
chain: LIWMYYHGQRHSDEHHHDDSLPHAQAAADDSGHESDSNSNEGRHHLLVSGAGDGPPLCSQNLGAPGGGPDNGPQDPDNTDDNGPQDPDNTDDNGPHDPLPQDPDNTDDNGPQDPDNTDDNGPHDPLPHSPSDSAGNDGGPPQLTEEVENKGGDQGPPLMTDGGGGHSHDSGHGGGDPHLPTLLLGSSGSGGDDDDPHGPVQLSYYD
notes: also called A204xAxA mutant; CTAR1 mutant; source: E. coli DH5α or BL21 Codon Plus RIPL, purified (glutathione Sepharose 4B)
B3: GST-LMP1_(181-386) Y384F (domain or fragment)
chain: LIWMYYHGQRHSDEHHHDDSLPHPQQATDDSGHESDSNSNEGRHHLLVSGAGDGPPLCSQNLGAPGGGPDNGPQDPDNTDDNGPQDPDNTDDNGPHDPLPQDPDNTDDNGPQDPDNTDDNGPHDPLPHSPSDSAGNDGGPPQLTEEVENKGGDQGPPLMTDGGGGHSHDSGHGGGDPHLPTLLLGSSGSGGDDDDPHGPVQLSFYD
notes: also called LMP1 Y384F; source: E. coli DH5α or BL21 Codon Plus RIPL, purified (glutathione Sepharose 4B)
B4: GST-LMP1_(181-386) G378A (domain or fragment)
chain: LIWMYYHGQRHSDEHHHDDSLPHPQQATDDSGHESDSNSNEGRHHLLVSGAGDGPPLCSQNLGAPGGGPDNGPQDPDNTDDNGPQDPDNTDDNGPHDPLPQDPDNTDDNGPQDPDNTDDNGPHDPLPHSPSDSAGNDGGPPQLTEEVENKGGDQGPPLMTDGGGGHSHDSGHGGGDPHLPTLLLGSSGSGGDDDDPHAPVQLSYYD
notes: source: E. coli DH5α or BL21 Codon Plus RIPL, purified (glutathione Sepharose 4B)
B5: GST-LMP1_(181-386) S383A (domain or fragment)
chain: LIWMYYHGQRHSDEHHHDDSLPHPQQATDDSGHESDSNSNEGRHHLLVSGAGDGPPLCSQNLGAPGGGPDNGPQDPDNTDDNGPQDPDNTDDNGPHDPLPQDPDNTDDNGPQDPDNTDDNGPHDPLPHSPSDSAGNDGGPPQLTEEVENKGGDQGPPLMTDGGGGHSHDSGHGGGDPHLPTLLLGSSGSGGDDDDPHGPVQLAYYD
notes: as for B4
B6: GST-RANK_(314-355) (domain or fragment)
chain: GGGPYAQGEDARMLSLVSKTEIEEDSFRQMPTEDEYMDRPSQ
notes: also called TRANCE receptor; source: E. coli DH5α or BL21 Codon Plus RIPL, purified (glutathione Sepharose 4B)
B7: GST-LMP1_(181-386) Y385A (domain or fragment)
chain: LIWMYYHGQRHSDEHHHDDSLPHPQQATDDSGHESDSNSNEGRHHLLVSGAGDGPPLCSQNLGAPGGGPDNGPQDPDNTDDNGPQDPDNTDDNGPHDPLPQDPDNTDDNGPQDPDNTDDNGPHDPLPHSPSDSAGNDGGPPQLTEEVENKGGDQGPPLMTDGGGGHSHDSGHGGGDPHLPTLLLGSSGSGGDDDDPHGPVQLSYAD
notes: also called mutation of Y385 (alanine scan); source: E. coli DH5α or BL21 Codon Plus RIPL, purified (glutathione Sepharose 4B)
B8: GST-LMP1_(181-386) L382A (domain or fragment)
chain: LIWMYYHGQRHSDEHHHDDSLPHPQQATDDSGHESDSNSNEGRHHLLVSGAGDGPPLCSQNLGAPGGGPDNGPQDPDNTDDNGPQDPDNTDDNGPHDPLPQDPDNTDDNGPQDPDNTDDNGPHDPLPHSPSDSAGNDGGPPQLTEEVENKGGDQGPPLMTDGGGGHSHDSGHGGGDPHLPTLLLGSSGSGGDDDDPHGPVQASYYD
notes: as for B4
B9: GST-LMP1_(181-386) Q381E (domain or fragment)
chain: LIWMYYHGQRHSDEHHHDDSLPHPQQATDDSGHESDSNSNEGRHHLLVSGAGDGPPLCSQNLGAPGGGPDNGPQDPDNTDDNGPQDPDNTDDNGPHDPLPQDPDNTDDNGPQDPDNTDDNGPHDPLPHSPSDSAGNDGGPPQLTEEVENKGGDQGPPLMTDGGGGHSHDSGHGGGDPHLPTLLLGSSGSGGDDDDPHGPVELSYYD
notes: also called LMP1 Q381E; source: E. coli DH5α or BL21 Codon Plus RIPL, purified (glutathione Sepharose 4B)

The first assay has as its system HA-LMP1. Kind of assay: Confocal immunofluorescence colocalization of Flag-TRAF6 with HA-LMP1 in HeLa cells. Particulars: mean of ten cells. In kind it is cell-based, Epstein-Barr virus. The procedure: HeLa cells were seeded onto cover glasses (Thermo Scientific, Menzel) in 24-well plates one day before transfection. Cells were transfected at 50–60% confluency with 50 ng of pCMV-HA-LMP1 plasmids and 100 ng of pRK5-Flag-TRAF6 plasmids, adjusted to a total of 500 ng DNA per sample with pRK5 empty vector, using Lipofectamine 2000 (Thermo Fisher Scientific) according to the manufacturer’s instructions. At 24 h posttransfection, cells were washed once with PBS and fixed with 4% paraformaldehyde (Sigma-Aldrich) for 20 min at RT, followed by permeabilization with 0.3% (v/v) Triton X-100 and blocking with 5% (v/v) FBS in PBS for 1 h at RT. For immunostaining, the cells were incubated overnight with the primary antibodies α-HA (1:1000, clone 16B12, BioLegend) and α-DYKDDDDK (1:1000, clone L5, BioLegend) at 4 °C. The secondary antibodies goat α-mouse Alexa 488 (1:500, cross-adsorbed, Invitrogen, #A-11029) and goat α-rat Alexa 555 (1:500, cross-adsorbed, Invitrogen, #A-21434) were added for 1.5 h at RT. Microscope slides were sealed with cover glasses using Mowiol mounting medium (Sigma-Aldrich). Nuclei were stained with Hoechst 33258 (Sigma-Aldrich). All samples were imaged using a Leica TCS SP5 confocal microscope with 405 nm, 488 nm, 543 nm or 633 nm laser lines, scanning each channel separately under image capture conditions that eliminated channel overlap. For each single experiment, 10 transfected cells positive for both constructs were randomly captured as single-cell images for quantification. The resulting images were then analyzed using the Leica TCS SP5 colocalization analyses application (LAS AF Version 2.7.3.9723). Analysis was performed with default parameters.
As to B1, the “colocalization of TRAF6 with LMP1, mean” value turned out to be 32.37.

A further assay has as its target T1, His-TRAF6_(310-522) (human, UniProt Q9Y4K3 310-522).
T1 construct: also called His-T6; recombinant TRAF6 wild-type; source: E. coli BL21 Codon Plus RIPL, purified (Ni-NTA)
T1 sequence: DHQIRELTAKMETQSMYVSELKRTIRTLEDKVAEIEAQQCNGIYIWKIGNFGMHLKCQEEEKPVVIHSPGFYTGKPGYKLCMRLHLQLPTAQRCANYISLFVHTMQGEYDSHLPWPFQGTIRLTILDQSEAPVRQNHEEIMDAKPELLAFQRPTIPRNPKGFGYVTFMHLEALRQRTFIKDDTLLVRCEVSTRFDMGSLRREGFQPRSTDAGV
Put plainly: AlphaScreen or HTRF; AlphaScreen PPI assay: His-TRAF and GST-LMP1, GST-CD40 or GST-RANK in PBS with 0.5% BSA and 0.1% Tween-20, 1 h at RT; standard 300 nM His-TRAF and 100 nM GST protein if not indicated otherwise; for KD His-TRAF6 at different concentrations, fit one site-specific binding with hill slope. Particulars: both partners purified. Background: In Alpha technology, singlet oxygen from a donor bead excites a nearby acceptor bead.
B2: the binding result is reported as “binds”. Consider B3, for which the binding result is recorded as “binds”.

As to B4, the binding result is “binds”.

As for B5, the binding result is recorded as “binds”. The Kd is a measure of binding affinity in units of concentration. Read a low Kd as a tighter complex. Regarding B6, the Kd turned out to be 7.7 nM. As for B7, the binding result was “binds”. B8: the binding result is on record as “binds”. As to B9, binding was put at a Kd of 14.7 nM.

Source of the values: article PMC10776578, “Epstein-Barr virus-driven B cell lymphoma mediated by a direct LMP1-TRAF6 complex” (Nature Communications, 2024).
